Laboratory results from patent US20240417464A1 (published 2024).
Blank lines part the entries; values can stand above or below the binder they belong to.

Assays:
[1] = biological target: T1, antibody-half molecule A1 with PF1H and PF1L-k0 (PF1H-DA303v2/PF1L-k0); experiment: SPR (Biacore T200), about 50 RU of half molecule A captured on chip-bound biotinylated antigen peptide, half molecule B at 2.5 mg/mL as analyte
Method: (§1) The interaction between the obtained antibody-half molecules was analyzed using Biacore (registered trademark) T200. Biotin CAPture Kit, Series S (GE Healthcare) was used for the measurement, and HBS-EP+10X (GE Healthcare) diluted 1/10th was used as a running buffer. The measurement temperature was 25° C. For the sensor chip, Series S Sensor Chip CAP (GE Healthcare) onto which previously-biotinylated antigen peptides were allowed to interact and thereby immobilized was used. These chips were allowed to capture approximately 50 RU of the antibody-half molecule A of interest and then interact with the antibody-half molecule B of interest diluted with the running buffer at 2.5 mg/mL for 180 seconds at a flow rate of 30 μL/min, and measurement was carried out. The molar binding ratio was calculated based on the following Formula 2. The antibody-half molecule A captured on the chip was washed as described in the instructions attached to the kit, and the chip was regenerated and reused.
(§2) At this time, for the antibody-half molecules to be captured, PF1H (SEQ ID NO: 22), which is the H chain variable region portion of the anti-human IL6 receptor antibody described in WO 2009/041621, was used as the H chain variable region portion, PF1L (SEQ ID NO: 23), which is the L chain variable region portion of the anti-human IL6 receptor antibody described in WO 2009/041621, was used as the L chain variable region portion, and k0 was used as the L chain constant region portion. In addition, for the antibody-half molecules used as analytes, IC17H (SEQ ID NO: 24), which is the anti-KLH antibody described in WO 2015/174439, was used as the H chain variable region, IC17L (SEQ ID NO: 25), which is the anti-KLH antibody described in WO 2015/174439, was used as the L chain variable region, and k0 was used as the L chain constant region.

[2] = biological target: T1, antibody-half molecule A1 with PF1H and …; experiment: SPR (Biacore T200), about 50 RU of half molecule A captured on chip-bound biotinylated antigen peptide, half molecule B at 2.5 mg/mL as analyte (Example 10)
Method: as §1
(§3) At this time, for the antibody-half molecule to be captured, PF1H (SEQ ID NO: 22), which is the H chain variable region portion of the anti-human IL6 receptor antibody described in WO 2009/041621, was used as the H chain variable region portion, PF1L (SEQ ID NO: 23), which is the L chain variable region portion of the anti-human IL6 receptor antibody described in WO 2009/041621, was used as the L chain variable region portion, and k0 was used as the L chain constant region portion. In addition, for the antibody-half molecules used as analytes, IC17H (SEQ ID NO: 24), which is the anti-KLH antibody described in WO 2015/174439, was used as the H chain variable region, IC17L (SEQ ID NO: 25), which is the anti-KLH antibody described in WO 2015/174439, was used as the L chain variable region, and k0 was used as L chain constant region.

[3] = biological target: antibody-half molecule A5 with PF1H and PF1L-k0 (PF1H-DA430v2/PF1L-k0); experiment: SPR (Biacore T200), about 50 RU of half molecule A captured on chip-bound biotinylated antigen peptide, half molecule B at 2.5 mg/mL as analyte
antibody-half molecule A5 with PF1H and PF1L-k0 (PF1H-DA430v2/PF1L-k0), sequence (heavy, as listed by the source): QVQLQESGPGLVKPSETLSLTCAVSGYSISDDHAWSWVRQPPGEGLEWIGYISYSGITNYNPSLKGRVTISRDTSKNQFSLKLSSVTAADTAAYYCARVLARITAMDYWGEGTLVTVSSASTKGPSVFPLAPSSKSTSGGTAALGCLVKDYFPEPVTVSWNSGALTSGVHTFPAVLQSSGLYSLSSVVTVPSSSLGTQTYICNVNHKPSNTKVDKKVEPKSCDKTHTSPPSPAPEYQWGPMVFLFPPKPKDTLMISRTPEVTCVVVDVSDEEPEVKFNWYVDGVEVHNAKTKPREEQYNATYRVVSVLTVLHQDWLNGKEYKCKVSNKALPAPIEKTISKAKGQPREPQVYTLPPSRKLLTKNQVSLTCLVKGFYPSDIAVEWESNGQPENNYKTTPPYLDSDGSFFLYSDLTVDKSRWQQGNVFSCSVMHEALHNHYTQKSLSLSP
Method: as §1, §2

[4] = biological target: antibody-half molecule A4 with PF1H and PF1L-k0 (PF1H-DA424v2/PF1L-k0); experiment: as above
antibody-half molecule A4 with PF1H and PF1L-k0 (PF1H-DA424v2/PF1L-k0), sequence (heavy, as listed by the source): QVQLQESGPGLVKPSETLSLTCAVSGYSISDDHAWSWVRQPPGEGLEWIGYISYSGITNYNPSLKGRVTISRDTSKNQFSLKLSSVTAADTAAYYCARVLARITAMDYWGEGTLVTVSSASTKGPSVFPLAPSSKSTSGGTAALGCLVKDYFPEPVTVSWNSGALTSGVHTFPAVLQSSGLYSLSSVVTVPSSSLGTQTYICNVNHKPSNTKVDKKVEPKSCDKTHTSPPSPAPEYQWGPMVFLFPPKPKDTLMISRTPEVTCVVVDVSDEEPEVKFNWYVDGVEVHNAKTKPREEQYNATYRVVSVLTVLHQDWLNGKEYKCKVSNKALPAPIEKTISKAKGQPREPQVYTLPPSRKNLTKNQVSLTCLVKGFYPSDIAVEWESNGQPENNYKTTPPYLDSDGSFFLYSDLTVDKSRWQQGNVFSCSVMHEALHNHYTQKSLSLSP
Method: as §1, §2

[5] = biological target: antibody-half molecule A2 with PF1H and PF1L-k0 (PF1H-DA402v2/PF1L-k0); experiment: as above
antibody-half molecule A2 with PF1H and PF1L-k0 (PF1H-DA402v2/PF1L-k0), sequence (heavy, as listed by the source): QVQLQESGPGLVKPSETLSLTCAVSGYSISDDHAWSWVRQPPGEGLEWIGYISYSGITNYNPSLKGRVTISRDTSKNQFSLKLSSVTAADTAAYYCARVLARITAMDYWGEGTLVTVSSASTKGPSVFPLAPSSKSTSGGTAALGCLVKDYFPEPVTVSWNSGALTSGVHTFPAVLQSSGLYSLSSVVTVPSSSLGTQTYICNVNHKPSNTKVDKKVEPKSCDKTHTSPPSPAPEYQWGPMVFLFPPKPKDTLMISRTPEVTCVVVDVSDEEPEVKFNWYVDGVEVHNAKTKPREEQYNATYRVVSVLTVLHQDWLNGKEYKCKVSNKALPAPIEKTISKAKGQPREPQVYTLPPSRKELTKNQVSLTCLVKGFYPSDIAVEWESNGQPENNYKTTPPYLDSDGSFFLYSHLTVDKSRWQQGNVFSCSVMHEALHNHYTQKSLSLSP
Method: as §1, §2

[6] = biological target: antibody-half molecule A3 with PF1H and PF1L-k0 (PF1H-DA405v2/PF1L-k0); experiment: as above
antibody-half molecule A3 with PF1H and PF1L-k0 (PF1H-DA405v2/PF1L-k0), sequence (heavy, as listed by the source): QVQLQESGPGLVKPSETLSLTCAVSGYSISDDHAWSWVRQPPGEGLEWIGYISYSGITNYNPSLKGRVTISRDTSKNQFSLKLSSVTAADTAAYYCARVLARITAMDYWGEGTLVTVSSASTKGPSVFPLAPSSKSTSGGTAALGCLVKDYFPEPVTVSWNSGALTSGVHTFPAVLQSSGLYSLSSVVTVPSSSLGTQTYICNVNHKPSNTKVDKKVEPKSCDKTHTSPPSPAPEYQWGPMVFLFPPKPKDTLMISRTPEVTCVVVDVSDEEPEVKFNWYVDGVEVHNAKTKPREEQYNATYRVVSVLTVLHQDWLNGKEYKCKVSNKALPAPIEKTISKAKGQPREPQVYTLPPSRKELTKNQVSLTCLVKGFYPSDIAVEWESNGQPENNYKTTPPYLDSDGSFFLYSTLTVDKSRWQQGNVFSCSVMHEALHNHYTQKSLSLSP
Method: as §1, §2

[7] = biological target: antibody-half molecule A6 with PF1H and PF1L-k0 (PF1H-DA303v2.n.n/PF1L-k0); experiment: SPR (Biacore T200), about 50 RU of half molecule A captured on chip-bound biotinylated antigen peptide, half molecule B at 2.5 mg/mL as analyte (Example 10)
antibody-half molecule A6 with PF1H and PF1L-k0 (PF1H-DA303v2.n.n/PF1L-k0), sequence (heavy, as listed by the source): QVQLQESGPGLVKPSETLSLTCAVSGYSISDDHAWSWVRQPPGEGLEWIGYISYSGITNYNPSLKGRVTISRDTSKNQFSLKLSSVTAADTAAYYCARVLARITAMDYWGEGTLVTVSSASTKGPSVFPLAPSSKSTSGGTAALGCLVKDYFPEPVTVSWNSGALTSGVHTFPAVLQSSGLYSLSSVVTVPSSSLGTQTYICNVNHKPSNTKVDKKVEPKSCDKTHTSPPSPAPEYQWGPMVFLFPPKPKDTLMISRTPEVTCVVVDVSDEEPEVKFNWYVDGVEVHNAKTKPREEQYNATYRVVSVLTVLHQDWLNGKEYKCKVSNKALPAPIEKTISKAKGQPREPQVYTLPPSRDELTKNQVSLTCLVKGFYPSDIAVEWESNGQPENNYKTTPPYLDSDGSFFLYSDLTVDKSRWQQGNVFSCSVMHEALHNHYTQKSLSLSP
Method: as §1, §3

T1 sequence (heavy, as listed by the source): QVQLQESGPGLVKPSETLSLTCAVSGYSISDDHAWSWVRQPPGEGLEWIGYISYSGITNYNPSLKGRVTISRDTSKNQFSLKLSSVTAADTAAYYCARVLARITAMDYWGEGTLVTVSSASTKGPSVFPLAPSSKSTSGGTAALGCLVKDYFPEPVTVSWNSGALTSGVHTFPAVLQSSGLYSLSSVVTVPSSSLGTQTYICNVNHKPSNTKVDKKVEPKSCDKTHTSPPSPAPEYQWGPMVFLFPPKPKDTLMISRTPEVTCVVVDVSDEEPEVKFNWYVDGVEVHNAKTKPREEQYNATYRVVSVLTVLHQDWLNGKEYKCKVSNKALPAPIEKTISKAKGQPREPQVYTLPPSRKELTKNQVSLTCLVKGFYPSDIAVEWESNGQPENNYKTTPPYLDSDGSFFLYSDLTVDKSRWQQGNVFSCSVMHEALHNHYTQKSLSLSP

- molar binding ratio [1]: 0.38 molar ratio
- molar binding ratio [2]: 0.54 molar ratio
B1: antibody-half molecule B1 with IC17H and IC17L-k0 (IC17H-DB220v2/IC17L-k0) (antibody, human IgG1, kappa)
heavy: QVQLQQSGPQLVRPGASVKISCKASGYSFTSYWMHWVNQRPGQGLEWIGMIDPSYSETRLNQKFKDKATLTVDKSSSTAYMQLSSPTSEDSAVYYCALYGNYFDYWGQGTTLTVSSASTKGPSVFPLAPSSKSTSGGTAALGCLVKDYFPEPVTVSWNSGALTSGVHTFPAVLQSSGLYSLSSVVTVPSSSLGTQTYICNVNHKPSNTKVDKKVEPKSCDKTHTSPPSPAPELLGGPSVFLFPPKPKDTLMISRTPEVTCVVVDVSHEEPEVKFNWYVDGVEVHNAKTKPREEQYNSTYRVVSVLTVLHQDWLNGKEYKCKVSNDALPMPIEETISKAKGQPREPQVYTLPPSRDELTKNQVSLTCLVKGFYPSDIAVEWESNGQPENNYKTTPPYLDSDGSFFLYSDLTVDKSRWQQGNVFSCSVMHEALHNHYTQESLSLSP
light: DIQMTQSSSSFSVSLGDRVTITCKASEDIYNRLAWYQQKPGNAPRLLISGATSLETGVPSRFSGSGSGKDYTLSITSLQTEDVATYYCQQYWSTPYTFGGGTKLEVKRTVAAPSVFIFPPSDEQLKSGTASVVCLLNNFYPREAKVQWKVDNALQSGNSQESVTEQDSKDSTYSLSSTLTLSKADYEKHKVYACEVTHQGLSSPVTKSFNRGEC

- molar binding ratio [3]: 0.27 molar ratio
B2: antibody-half molecule B5 with IC17H and IC17L-k0 (IC17H-DB430v2/IC17L-k0) (antibody, human IgG1, kappa)
heavy: QVQLQQSGPQLVRPGASVKISCKASGYSFTSYWMHWVNQRPGQGLEWIGMIDPSYSETRLNQKFKDKATLTVDKSSSTAYMQLSSPTSEDSAVYYCALYGNYFDYWGQGTTLTVSSASTKGPSVFPLAPSSKSTSGGTAALGCLVKDYFPEPVTVSWNSGALTSGVHTFPAVLQSSGLYSLSSVVTVPSSSLGTQTYICNVNHKPSNTKVDKKVEPKSCDKTHTSPPSPAPELLGGPSVFLFPPKPKDTLMISRTPEVTCVVVDVSHEEPEVKFNWYVDGVEVHNAKTKPREEQYNSTYRVVSVLTVLHQDWLNGKEYKCKVSNDALPMPIEETISKAKGQPREPQVYTLPPSRDLLTKNQVSLTCLVKGFYPSDIAVEWESNGQPENNYKTTPPYLDSDGSFFLYSDLTVDKSRWQQGNVFSCSVMHEALHNHYTQESLSLSP
light: DIQMTQSSSSFSVSLGDRVTITCKASEDIYNRLAWYQQKPGNAPRLLISGATSLETGVPSRFSGSGSGKDYTLSITSLQTEDVATYYCQQYWSTPYTFGGGTKLEVKRTVAAPSVFIFPPSDEQLKSGTASVVCLLNNFYPREAKVQWKVDNALQSGNSQESVTEQDSKDSTYSLSSTLTLSKADYEKHKVYACEVTHQGLSSPVTKSFNRGEC

- molar binding ratio [4]: 0.25 molar ratio
B3: antibody-half molecule B4 with IC17H and IC17L-k0 (IC17H-DB424v2/IC17L-k0) (antibody, human IgG1, kappa)
heavy: QVQLQQSGPQLVRPGASVKISCKASGYSFTSYWMHWVNQRPGQGLEWIGMIDPSYSETRLNQKFKDKATLTVDKSSSTAYMQLSSPTSEDSAVYYCALYGNYFDYWGQGTTLTVSSASTKGPSVFPLAPSSKSTSGGTAALGCLVKDYFPEPVTVSWNSGALTSGVHTFPAVLQSSGLYSLSSVVTVPSSSLGTQTYICNVNHKPSNTKVDKKVEPKSCDKTHTSPPSPAPELLGGPSVFLFPPKPKDTLMISRTPEVTCVVVDVSHEEPEVKFNWYVDGVEVHNAKTKPREEQYNSTYRVVSVLTVLHQDWLNGKEYKCKVSNDALPMPIEETISKAKGQPREPQVYTLPPSRDNLTKNQVSLTCLVKGFYPSDIAVEWESNGQPENNYKTTPPYLDSDGSFFLYSDLTVDKSRWQQGNVFSCSVMHEALHNHYTQESLSLSP
light: DIQMTQSSSSFSVSLGDRVTITCKASEDIYNRLAWYQQKPGNAPRLLISGATSLETGVPSRFSGSGSGKDYTLSITSLQTEDVATYYCQQYWSTPYTFGGGTKLEVKRTVAAPSVFIFPPSDEQLKSGTASVVCLLNNFYPREAKVQWKVDNALQSGNSQESVTEQDSKDSTYSLSSTLTLSKADYEKHKVYACEVTHQGLSSPVTKSFNRGEC

- molar binding ratio [5]: 0.63 molar ratio
B4: antibody-half molecule B2 with IC17H and IC17L-k0 (IC17H-DB402v2/IC17L-k0) (antibody, human IgG1, kappa)
heavy: QVQLQQSGPQLVRPGASVKISCKASGYSFTSYWMHWVNQRPGQGLEWIGMIDPSYSETRLNQKFKDKATLTVDKSSSTAYMQLSSPTSEDSAVYYCALYGNYFDYWGQGTTLTVSSASTKGPSVFPLAPSSKSTSGGTAALGCLVKDYFPEPVTVSWNSGALTSGVHTFPAVLQSSGLYSLSSVVTVPSSSLGTQTYICNVNHKPSNTKVDKKVEPKSCDKTHTSPPSPAPELLGGPSVFLFPPKPKDTLMISRTPEVTCVVVDVSHEEPEVKFNWYVDGVEVHNAKTKPREEQYNSTYRVVSVLTVLHQDWLNGKEYKCKVSNDALPMPIEETISKAKGQPREPQVYTLPPSRDELTKNQVSLTCLVKGFYPSDIAVEWESNGQPENNYKTTPPYLDSDGSFFLYSHLTVDKSRWQQGNVFSCSVMHEALHNHYTQESLSLSP
light: DIQMTQSSSSFSVSLGDRVTITCKASEDIYNRLAWYQQKPGNAPRLLISGATSLETGVPSRFSGSGSGKDYTLSITSLQTEDVATYYCQQYWSTPYTFGGGTKLEVKRTVAAPSVFIFPPSDEQLKSGTASVVCLLNNFYPREAKVQWKVDNALQSGNSQESVTEQDSKDSTYSLSSTLTLSKADYEKHKVYACEVTHQGLSSPVTKSFNRGEC

- molar binding ratio [6]: 0.54 molar ratio
B5: antibody-half molecule B3 with IC17H and IC17L-k0 (IC17H-DB405v2/IC17L-k0) (antibody, human IgG1, kappa)
heavy: QVQLQQSGPQLVRPGASVKISCKASGYSFTSYWMHWVNQRPGQGLEWIGMIDPSYSETRLNQKFKDKATLTVDKSSSTAYMQLSSPTSEDSAVYYCALYGNYFDYWGQGTTLTVSSASTKGPSVFPLAPSSKSTSGGTAALGCLVKDYFPEPVTVSWNSGALTSGVHTFPAVLQSSGLYSLSSVVTVPSSSLGTQTYICNVNHKPSNTKVDKKVEPKSCDKTHTSPPSPAPELLGGPSVFLFPPKPKDTLMISRTPEVTCVVVDVSHEEPEVKFNWYVDGVEVHNAKTKPREEQYNSTYRVVSVLTVLHQDWLNGKEYKCKVSNDALPMPIEETISKAKGQPREPQVYTLPPSRDELTKNQVSLTCLVKGFYPSDIAVEWESNGQPENNYKTTPPYLDSDGSFFLYSTLTVDKSRWQQGNVFSCSVMHEALHNHYTQESLSLSP
light: DIQMTQSSSSFSVSLGDRVTITCKASEDIYNRLAWYQQKPGNAPRLLISGATSLETGVPSRFSGSGSGKDYTLSITSLQTEDVATYYCQQYWSTPYTFGGGTKLEVKRTVAAPSVFIFPPSDEQLKSGTASVVCLLNNFYPREAKVQWKVDNALQSGNSQESVTEQDSKDSTYSLSSTLTLSKADYEKHKVYACEVTHQGLSSPVTKSFNRGEC

- molar binding ratio [7]: 0.42 molar ratio
B6: antibody-half molecule B6 with IC17H and IC17L-k0 (IC17H-DB220v2.n.n/IC17L-k0) (antibody, human IgG1, kappa)
heavy: QVQLQQSGPQLVRPGASVKISCKASGYSFTSYWMHWVNQRPGQGLEWIGMIDPSYSETRLNQKFKDKATLTVDKSSSTAYMQLSSPTSEDSAVYYCALYGNYFDYWGQGTTLTVSSASTKGPSVFPLAPSSKSTSGGTAALGCLVKDYFPEPVTVSWNSGALTSGVHTFPAVLQSSGLYSLSSVVTVPSSSLGTQTYICNVNHKPSNTKVDKKVEPKSCDKTHTSPPSPAPELLGGPSVFLFPPKPKDTLMISRTPEVTCVVVDVSHEEPEVKFNWYVDGVEVHNAKTKPREEQYNSTYRVVSVLTVLHQDWLNGKEYKCKVSNDALPMPIEETISKAKGQPREPQVYTLPPSRDELTKNQVSLTCLVKGFYPSDIAVEWESNGQPENNYKTTPPYLDSDGSFFLYSDLTVDKSRWQQGNVFSCSVMHEALHNHYTQKSLSLSP
light: DIQMTQSSSSFSVSLGDRVTITCKASEDIYNRLAWYQQKPGNAPRLLISGATSLETGVPSRFSGSGSGKDYTLSITSLQTEDVATYYCQQYWSTPYTFGGGTKLEVKRTVAAPSVFIFPPSDEQLKSGTASVVCLLNNFYPREAKVQWKVDNALQSGNSQESVTEQDSKDSTYSLSSTLTLSKADYEKHKVYACEVTHQGLSSPVTKSFNRGEC
